Values of other authors in article PMC5936680.

Target: Hemoglobin αβ dimer (Homo sapiens) (UniProt P69905)

Substance: Hemoglobin αβ dimer (from UniProt P69905)
- Kd: 1000 nM
